Data from the nanobody polyreactivity screen of Harvey et al. (2022).

Test: yeast display, Sf9 membrane polyspecificity reagent, FACS + sequencing; frameworks hold sequencing errors
Procedure, shortened: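 A nanobody's polyreactivity label depends on the gate it was sorted from. Yeast display cells were stained with 10% biotinylated, detergent-solubilized Sf9 membrane reagent for 1 hour at 4 °C, enriched on streptavidin microbeads and sorted by FACS. The low and high (top ~1%) gates were set on anti-HA fluorescence for expression and streptavidin fluorescence for reagent binding.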

Sequence | polyreactivity (PSR sort gate)
QVQLVESGGGLVQAGGSLSLSCAASGSIFAGNAMGWYRQAPGKERELVAAIRWSTGSTYYADSVKGRFTISRDNAKNTVYLQMNSQKPEDTAVYYCAATDTTFYGIVRYEFWGQGTQVTVSS | low polyreactivity
QVQLVESGGGLVQAGGSLRLSCAASGFTFGRNAMGWYRQEPGKERELVATISKSGGSTYYADSVKGRFTISRDNAKNTVYVQMNSLKPEDTAVYYCADRSRRLPGDYWGQGTQVTVSS | low polyreactivity
QVQLVESGGGLVQAGGSLRLSCAASGSIYVNAMGWYRQAPGKERELVAVISKSGGSTYYADSVKGRFTISRDNAKNTVYLQMNSLKPEDTAVYYCATRGVSPSRPGYYWGQGTQVTVSS | high polyreactivity
QVQLEESGGGLVQAGGSLRLSCAASGRIYRYYDMGWYRQAPGKEREFVAAITRSGAITYYADSLKGRFTISRDNAKNTVYLQMNSLKPEDTAVYYCAAVDDDYSIVWYDYWGQVTQVTVSS | low polyreactivity
QVQLVESGGGLVQARGSLRLSFAASGYTLRPNGMGWYRQAPGKERELVAAISSGGSTYYADSVKGRFTISRDNAKNTVYLQLNSLKPEDTAVSYCAAEYWYDYWVQGTQVTVSS | low polyreactivity
QVQLVESGGGLVQAGGSLRLSCAASGGTYNSNAMGWYRQAPAKEREFVAAISSSGGSTYYADSVKGRFTISRDNAKNTVNLQMNSLKPEDTAVYYCAKRYPYPNCRFRFGYWGQGTQVTVSS | high polyreactivity
QVQLVDSGGGLVQAGGSLRLSCAASGSTFRGYDMGWYRQAPGKESELVAAITGSGTSTYYADSVKVRFTISRDNAKNTVYLQMNSLKPEDTAVYYCAARSRRPAERMYYWGQGTQVTVSS | high polyreactivity
QVQLVESGGGLVQAGGSLRLSCAASGRIFKNYAMGWYRQAPGKERELVAGITRTGGSTYYADSVKGRFTISRDNAKNTVYLQMNSLKPEDTAVYYCAARPARKLVYWVQGTQVTVSS | high polyreactivity
QVQLQESGGGLVQAGGSLRLSCAASGNIVDADIMGWYRQAPGKERELVASITDGGSTNYADSEKGRFTICRDNAKNTVYLQMNSVKPEDTAVYYCAAMAYPDIPTSFDYDSEYFYWGQGTQVKVSS | low polyreactivity
QVQLVESGGGLVQAGGSLRLSCAASGRTLQGYAMGWYRQEPGKERELVAAISRGGGSTYADSVKGRFTISRDNAKNTVYLQMNSLKPEDTAVYYCNKKSYYRYYWGQGTQVTVSS | high polyreactivity
QVQLVESGGGLVLAGGSLRLSCAASGSILEGYVMGWYRQAPGKERELVAAISRGGGSTYYADSVKGRFTISRDNAKNTVYLQMNSLKPEDTAVYYCAARFAASYYWGQGTQVTVSS | high polyreactivity
QVQLVESGGGLVQAGGSLRLSCAASGSTFSYNAMGWYRQAPGKERELVAAISFISGSTYYADSVKGRFTISRDNAKNTVYLQMNSLKPEDTAVYYCNAGRTRRRDYYWQYDYWGQGTQVTVSS | high polyreactivity
QVQLVESGGGLVQAGGSLRLSCAASGRTFYIYAMGWYRQAPGKERELVAAISWSGGTTYYADSVKGRFTISRDHAKNTVYLQMNSLKPEDTAVYYCNVYPAYNYFDYDYWGQGTQVTVSS | high polyreactivity
QLHLQVSGGGLVQAGGSLRLSCAASGSIFLTSEKGWYRQAPGKERELVAAIATGTSTNYADSVKGRFTISRDNAKNTVYLQLNSLKPEDTAVYYCATYDYWGQGTKVTVSS | low polyreactivity
QVQLVESGGGLVQAGGSLRLSCAASGSTFFRYAMGWYRQAPGKERELVAAITSGGNTYYADSVKGRFTISRDNAKNTVYLQMNSLIPEDTAVYYCAVVFWQLAHRYDYWGQGTQVTVSS | low polyreactivity
QVQLVESGGGLVQAGGSLRLSCASSGRIFLVYAMGWYRQAPGKERELVAAISYSGGRTYYADSVKGRFTISRDNAKNTVYLQMNSLKPEDTAVYYCAAKRITYYGGGRFYYWGQGTQVTVSS | high polyreactivity
QVQLVESWGGLVQAGGSHRLSCSASGTILGDYGMGWYRQAPGKEREMVGAITWNGDSTYYADSVKGRFTISRDNAKNTVYLQMNSLKPEDTAVYYCAADLKDYKYYPWYGYWGQGTQVTVSS | low polyreactivity
